Results: patent US20100015637A1 (AbbVie / Abbott, published 2010)
Values belong to the molecule of their own block, whether it stands above or below them.

Assays:
[1] = target: human PlGF-1 comprising amino acids 1-137 produced in human embryonic kidney cells (human) (UniProt P49763); test: Format 1 …, capture 2-826-335, detection 1-255-713; sFlt-1 153 pmol/L (ratio 5)
[2] = target: human PlGF-1 comprising amino acids 1-137 produced in human embryonic kidney cells (human) (UniProt P49763); test: Format 3 Quantikine ELISA, capture MAb264, detection Pb264; sFlt-1 0 pmol/L (ratio 0)
[3] = target: human PlGF-1 comprising amino acids 1-137 produced in human embryonic kidney cells (human) (UniProt P49763); test: Format 1 …, capture 2-826-335, detection 1-255-713; sFlt-1 0 pmol/L (ratio 0)
[4] = target: human PlGF-1 comprising amino acids 1-137 produced in human embryonic kidney cells (human) (UniProt P49763); test: Format 2 …, capture MAb264, detection Pb264; sFlt-1 613 pmol/L (ratio 20)
[5] = target: human PlGF-1 comprising amino acids 1-137 produced in human embryonic kidney cells (human) (UniProt P49763); test: Format 1 …, capture 2-826-335, detection 1-255-713; sFlt-1 2300 pmol/L (ratio 75)
[6] = target: human PlGF-1 comprising amino acids 1-137 produced in human embryonic kidney cells (human) (UniProt P49763); test: Format 3 Quantikine ELISA, capture MAb264, detection Pb264; sFlt-1 2300 pmol/L (ratio 75)
[7] = target: T1, CHO human PlGF-1 comprising amino acids 1-137 (human PlGF-1-His (1-131), CHO 6305) (human, UniProt P49763 19-221, N-glycans at N21 (completely glycosylated) and N89 (partially glycosylated)); test: … sandwich, capture MAb255, detection MAb826; antigen 1500 pg/mL
T1 construct: Mature human PlGF-1 with 6xHis tag (137 amino acids); also called CHO (1-137)
T1 sequence: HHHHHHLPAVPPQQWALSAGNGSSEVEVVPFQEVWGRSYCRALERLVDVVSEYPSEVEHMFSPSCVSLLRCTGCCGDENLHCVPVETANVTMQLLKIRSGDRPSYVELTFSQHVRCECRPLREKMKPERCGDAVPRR
In short: (§1)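 Human PlGF-1 antigen preparations, including recombinant forms expressed in CHO cells, were tested at 0 to 1500 pg/mL in a sandwich immunoassay. The capture antibody was a monoclonal anti-human PlGF-1 antibody immobilized on magnetic microparticles by passive coating and EDAC cross-linking. Detection used an acridinium ester-labeled monoclonal anti-human PlGF-1 antibody. Signal was recorded as chemiluminescent relative light units (RLU) at each antigen level.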

[8] = target: T2, CHO human PlGF-1 fragment (comprising amino acids 17-131; ATCC PTA-8540) (human, UniProt P49763 35-221); test: as above
T2 sequence: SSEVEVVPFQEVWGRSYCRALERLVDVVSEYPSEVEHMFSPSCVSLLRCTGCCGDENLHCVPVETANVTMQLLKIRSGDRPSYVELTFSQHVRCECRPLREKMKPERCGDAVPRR
In short: as §1

[9] = target: T3, human PlGF-1 fragment (comprising amino acids 17-131) produced in human embryonic kidney cells (human, UniProt P49763 35-221); test: as above
T3 sequence: T2 sequence
In short: as §1

[10] = target: T4, human PlGF-1 comprising amino acids 1-137 produced in human embryonic kidney cells (human, UniProt P49763 19-221); test: as above
T4 construct: Mature human PlGF-1 with 6xHis tag; also called HEK (1-137); full length HEK human PlGF-1 (1-137)
T4 sequence: T1 sequence
In short: as §1

[11] = target: T1, CHO human PlGF-1 comprising amino acids …; test: … sandwich, capture MAb255, detection MAb826; antigen 15 pg/mL
In short: as §1

[12] = target: T2, CHO human PlGF-1 fragment (comprising …); test: as above
In short: as §1

[13] = target: T3, human PlGF-1 fragment (comprising amino …); test: as above
In short: as §1

[14] = target: T4, human PlGF-1 comprising amino acids …; test: as above
In short: as §1

[15] = target: recombinant human PlGF-1 (comprising amino acids 1-131) expressed in E. coli (R&D Systems) (human) (UniProt P49763); test: … sandwich, capture MAb826, detection pAb264; antigen 750 pg/mL
[16] = target: recombinant human PlGF-1 (comprising amino acids 1-131) expressed in E. coli (R&D Systems) (human) (UniProt P49763); test: … sandwich, capture MAb826, detection pAb264; antigen 0 pg/mL (blank)
[17] = target: T1, CHO human PlGF-1 comprising amino acids …; test: … sandwich, capture MAb826, detection pAb264; antigen 60 pg/mL
[18] = target: T4, human PlGF-1 comprising amino acids …; test: as above

% Inhibition [1]: 64.1%
PlGF-1 Measured [1]: 367 pg/mL
% Inhibition [2]: 0%
PlGF-1 Measured [2]: 865 pg/mL
% Inhibition [3]: 0%
PlGF-1 Measured [3]: 1020 pg/mL
% Inhibition [4]: 89.5%
PlGF-1 Measured [4]: 82.9 pg/mL
% Inhibition [5]: 93.6%
PlGF-1 Measured [5]: 65 pg/mL
% Inhibition [6]: 75.9%
PlGF-1 Measured [6]: 209 pg/mL
Molecule: native sFlt-1, isolated from human placental tissue (from UniProt P17948 27-687) (receptor)

RLU [7]: 734000 RLU
RLU [8]: 750000 RLU
RLU [9]: 1.04e+06 RLU
RLU [10]: 1.52e+06 RLU
RLU [11]: 14500 RLU
RLU [12]: 13300 RLU
RLU [13]: 17200 RLU
RLU [14]: 26700 RLU
B1: monoclonal antibody 1-255-713 (produced by murine hybridoma cell line 1-255-713, ATCC PTA-8536) (antibody, mouse IgG2a, V domains shown)
VH: QVHLQQSGAELMKPGASVKISCKATGYTFSSYWIEWVKQRPGHGLEWIGEILPGSVSNNFNEKFKDKATLTADPSSNTAYIQVSSLTSEDSAVYYCARSTGFYYGGNYFDHWGQGTTLAVSS
VL: DVVMTQTPLSLPVSPGDQASISCRSSQSLVHSNGHTYLHWYLQKPGQSPKLLIYKVSNRFSGVPDRVSGSGSGTDFTLKISRVEAEDLGVYFCSQSTHVPPTFGGGTKLEIKR
notes: also called MAb255

RLU [15]: 606000 RLU
RLU [16]: 6410 RLU
RLU [17]: 22200 RLU
RLU [18]: 47700 RLU
B2: monoclonal antibody 2-826-335 (produced by murine hybridoma cell line 2-826-335, ATCC PTA-8539) (antibody, mouse IgG1, V domains shown)
VH: QVQLKQSGPGLVQPSQSLSITCTVSGFSLTTYGIHWVRQSPGKGLEWLGVMWSGGDTDYDAAFISRLSISKDNSKSQVFFKMNSLQANDTGIYYCARYRFYGMDYWGQGTSVTVSS
VL: AIQMTQSSSSFSVSLGDRVTITCKASEDIYNRFAWYQQKPGNAPRLLISGAASLEAGVPSRFSGSGSGQDYTLSITSLQTEDVATYYCQQYWSTPWTFGGGTKLEIKR
notes: also called MAb826
